According to publication PMC10514313, “Identification of enzymatic functions of osmo-regulated periplasmic glucan biosynthesis proteins from Escherichia coli reveals a novel glycoside hydrolase family” (Communications Biology, 2023):

Assays:
[1] = molecular target: T1, EcOpgD (Escherichia coli, UniProt P40120, D388N); assay: X-ray crystal structure of the complex ([…] Å); type: binding; details: co-crystallised with β-1,2-glucan of average DP 121, Sop13 is the part seen in density (chain B; DP11 in chain A); pH 4.0; subsites -7 to +6; Table 3 prints the mutant as D378N
T1 construct: gene mdoD; 60601 Da; homodimer, Loop A of the other subunit completes the site
T1 sequence (P40120 33-551 D388N): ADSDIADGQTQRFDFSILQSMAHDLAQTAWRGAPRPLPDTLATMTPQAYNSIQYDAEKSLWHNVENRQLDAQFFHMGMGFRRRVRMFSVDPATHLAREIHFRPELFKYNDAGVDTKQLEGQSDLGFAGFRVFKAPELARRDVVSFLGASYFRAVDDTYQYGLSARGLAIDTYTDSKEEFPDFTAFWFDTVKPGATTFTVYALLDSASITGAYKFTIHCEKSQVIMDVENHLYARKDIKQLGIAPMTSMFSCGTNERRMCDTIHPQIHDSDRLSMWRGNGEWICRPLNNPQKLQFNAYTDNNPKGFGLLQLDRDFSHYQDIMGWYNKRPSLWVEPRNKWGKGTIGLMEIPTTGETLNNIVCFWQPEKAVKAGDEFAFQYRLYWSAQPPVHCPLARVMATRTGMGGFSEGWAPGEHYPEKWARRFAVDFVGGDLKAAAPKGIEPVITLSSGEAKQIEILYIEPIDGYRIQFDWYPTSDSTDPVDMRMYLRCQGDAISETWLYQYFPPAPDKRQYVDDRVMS

[2] = molecular target: T2, EcOpgG (Escherichia coli, UniProt P33136, D361N); assay: X-ray crystal structure of the complex ([…] Å); type: binding; details: crystallised and soaked with β-1,2-glucan of average DP 17.7, Sop16 is the part seen in density; pH 5.0
T2 construct: gene mdoG; 56543 Da; homodimer
T2 sequence (P33136 23-511 D361N): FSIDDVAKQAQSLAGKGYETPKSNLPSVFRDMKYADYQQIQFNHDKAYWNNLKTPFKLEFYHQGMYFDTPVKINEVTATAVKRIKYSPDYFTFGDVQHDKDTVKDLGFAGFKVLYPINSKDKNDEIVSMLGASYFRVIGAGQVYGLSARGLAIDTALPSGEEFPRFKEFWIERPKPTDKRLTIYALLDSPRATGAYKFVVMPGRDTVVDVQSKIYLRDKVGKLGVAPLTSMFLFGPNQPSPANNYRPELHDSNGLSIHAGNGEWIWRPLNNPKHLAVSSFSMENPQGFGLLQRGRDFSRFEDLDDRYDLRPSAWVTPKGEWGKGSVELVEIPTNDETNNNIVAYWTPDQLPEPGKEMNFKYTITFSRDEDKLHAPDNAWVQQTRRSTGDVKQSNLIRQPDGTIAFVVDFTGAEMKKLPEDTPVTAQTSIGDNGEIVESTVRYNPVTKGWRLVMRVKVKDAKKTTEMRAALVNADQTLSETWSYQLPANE

[3] = molecular target: the molecule itself; assay: SEC; Superdex 200GL (24 ml), 20 mM Tris-HCl pH 7.5, 100 mM NaCl, 0.5 mg/mL protein loaded, 0.3 mL/min; molecular weight from marker proteins
[4] = molecular target: the molecule itself; assay: crystal structure; ligand-free EcOpgD D388N, 2.95 Å, 12 monomers (six dimers) in the asymmetric unit; 0.1 M Tris-HCl pH 8.5, 0.1 M trimethylamine-N-oxide, 17% PEG 2000 MME, 20 °C
[5] = molecular target: the molecule itself; assay: crystal structure; EcOpgG D361N with β-1,2-glucan, 1.81 Å, one chain in the asymmetric unit, dimer with a symmetry mate; 0.1 M MMT pH 5.0, 27% PEG 400, 20 °C

## OC[C@H]1O[C@@H](O[C@H]2[C@H](O[C@H]3[C@H](O[C@H]4[C@H](O[C@H]5[C@H](O[C@H]6[C@H](O[C@H]7[C@H](O[C@H]8[C@H](O[C@H]9[C@H](O[C@H]%10[C@H](O[C@H]%11[C@H](O[C@H]%12[C@H](O[C@H]%13C(O)O[C@H](CO)[C@@H](O)[C@@H]%13O)O[C@H](CO)[C@@H](O)[C@@H]%12O)O[C@H](CO)[C@@H](O)[C@@H]%11O)O[C@H](CO)[C@@H](O)[C@@H]%10O)O[C@H](CO)[C@@H](O)[C@@H]9O)O[C@H](CO)[C@@H](O)[C@@H]8O)O[C@H](CO)[C@@H](O)[C@@H]7O)O[C@H](CO)[C@@H](O)[C@@H]6O)O[C@H](CO)[C@@H](O)[C@@H]5O)O[C@H](CO)[C@@H](O)[C@@H]4O)O[C@H](CO)[C@@H](O)[C@@H]3O)O[C@H](CO)[C@@H](O)[C@@H]2O)[C@H](O)[C@@H](O)[C@@H]1O (stereo partly drawn) [Sop13]
[1]
  X-ray crystal structure of the complex (2.06 Å): electron densities of β-1,2-glucans with DP11 and DP13 (Sop11 and Sop13, respectively) were clearly observed

## OC[C@H]1O[C@@H](O[C@H]2[C@H](O[C@H]3[C@H](O[C@H]4[C@H](O[C@H]5[C@H](O[C@H]6[C@H](O[C@H]7[C@H](O[C@H]8[C@H](O[C@H]9[C@H](O[C@H]%10[C@H](O[C@H]%11[C@H](O[C@H]%12[C@H](O[C@H]%13[C@H](O[C@H]%14[C@H](O[C@H]%15[C@H](O[C@H]%16C(O)O[C@H](CO)[C@@H](O)[C@@H]%16O)O[C@H](CO)[C@@H](O)[C@@H]%15O)O[C@H](CO)[C@@H](O)[C@@H]%14O)O[C@H](CO)[C@@H](O)[C@@H]%13O)O[C@H](CO)[C@@H](O)[C@@H]%12O)O[C@H](CO)[C@@H](O)[C@@H]%11O)O[C@H](CO)[C@@H](O)[C@@H]%10O)O[C@H](CO)[C@@H](O)[C@@H]9O)O[C@H](CO)[C@@H](O)[C@@H]8O)O[C@H](CO)[C@@H](O)[C@@H]7O)O[C@H](CO)[C@@H](O)[C@@H]6O)O[C@H](CO)[C@@H](O)[C@@H]5O)O[C@H](CO)[C@@H](O)[C@@H]4O)O[C@H](CO)[C@@H](O)[C@@H]3O)O[C@H](CO)[C@@H](O)[C@@H]2O)[C@H](O)[C@@H](O)[C@@H]1O (stereo partly drawn) [Sop16]
[2]
  X-ray crystal structure of the complex (1.81 Å): In the catalytic pocket of the complex, the electron density of a Sop16 molecule was observed

B1: OpgD from E. coli (EcOpgD), wild type, without signal sequence, C-terminal His6-tag (enzyme, Escherichia coli, UniProt P40120 33-551, looked up)
chain: ADSDIADGQTQRFDFSILQSMAHDLAQTAWRGAPRPLPDTLATMTPQAYNSIQYDAEKSLWHNVENRQLDAQFFHMGMGFRRRVRMFSVDPATHLAREIHFRPELFKYNDAGVDTKQLEGQSDLGFAGFRVFKAPELARRDVVSFLGASYFRAVDDTYQYGLSARGLAIDTYTDSKEEFPDFTAFWFDTVKPGATTFTVYALLDSASITGAYKFTIHCEKSQVIMDVENHLYARKDIKQLGIAPMTSMFSCGTNERRMCDTIHPQIHDSDRLSMWRGNGEWICRPLNNPQKLQFNAYTDNNPKGFGLLQLDRDFSHYQDIMGWYNKRPSLWVEPRNKWGKGTIGLMEIPTTGETLDNIVCFWQPEKAVKAGDEFAFQYRLYWSAQPPVHCPLARVMATRTGMGGFSEGWAPGEHYPEKWARRFAVDFVGGDLKAAAPKGIEPVITLSSGEAKQIEILYIEPIDGYRIQFDWYPTSDSTDPVDMRMYLRCQGDAISETWLYQYFPPAPDKRQYVDDRVMS
notes: OpgD (glucans biosynthesis protein D) of Escherichia coli, gene amplified from a colony of E. coli BL21(DE3), GenBank CAQ31910.2; theoretical mass 60601 Da; Cloned between the XhoI and NdeI sites of pET30a; also called MdoD; source: E. coli BL21(DE3), purified (HisTrap FF crude)
[3]
  stoichiometry N: 2

B2: EcOpgD D388N mutant, without signal sequence, C-terminal His6-tag (enzyme, Escherichia coli, UniProt P40120 33-551, looked up)
chain: ADSDIADGQTQRFDFSILQSMAHDLAQTAWRGAPRPLPDTLATMTPQAYNSIQYDAEKSLWHNVENRQLDAQFFHMGMGFRRRVRMFSVDPATHLAREIHFRPELFKYNDAGVDTKQLEGQSDLGFAGFRVFKAPELARRDVVSFLGASYFRAVDDTYQYGLSARGLAIDTYTDSKEEFPDFTAFWFDTVKPGATTFTVYALLDSASITGAYKFTIHCEKSQVIMDVENHLYARKDIKQLGIAPMTSMFSCGTNERRMCDTIHPQIHDSDRLSMWRGNGEWICRPLNNPQKLQFNAYTDNNPKGFGLLQLDRDFSHYQDIMGWYNKRPSLWVEPRNKWGKGTIGLMEIPTTGETLNNIVCFWQPEKAVKAGDEFAFQYRLYWSAQPPVHCPLARVMATRTGMGGFSEGWAPGEHYPEKWARRFAVDFVGGDLKAAAPKGIEPVITLSSGEAKQIEILYIEPIDGYRIQFDWYPTSDSTDPVDMRMYLRCQGDAISETWLYQYFPPAPDKRQYVDDRVMS
notes: made from the EcOpgD plasmid of m1; text and methods say D388N; source: E. coli BL21(DE3), purified (HisTrap FF crude)
[4]
  binding result: binds

B3: OpgG from E. coli (EcOpgG), wild type, without signal sequence, C-terminal His6-tag (enzyme, Escherichia coli, UniProt P33136 23-511, looked up)
chain: FSIDDVAKQAQSLAGKGYETPKSNLPSVFRDMKYADYQQIQFNHDKAYWNNLKTPFKLEFYHQGMYFDTPVKINEVTATAVKRIKYSPDYFTFGDVQHDKDTVKDLGFAGFKVLYPINSKDKNDEIVSMLGASYFRVIGAGQVYGLSARGLAIDTALPSGEEFPRFKEFWIERPKPTDKRLTIYALLDSPRATGAYKFVVMPGRDTVVDVQSKIYLRDKVGKLGVAPLTSMFLFGPNQPSPANNYRPELHDSNGLSIHAGNGEWIWRPLNNPKHLAVSSFSMENPQGFGLLQRGRDFSRFEDLDDRYDLRPSAWVTPKGEWGKGSVELVEIPTNDETNDNIVAYWTPDQLPEPGKEMNFKYTITFSRDEDKLHAPDNAWVQQTRRSTGDVKQSNLIRQPDGTIAFVVDFTGAEMKKLPEDTPVTAQTSIGDNGEIVESTVRYNPVTKGWRLVMRVKVKDAKKTTEMRAALVNADQTLSETWSYQLPANE
notes: OpgG (glucans biosynthesis protein G) of Escherichia coli, gene amplified from a colony of E. coli BL21(DE3), GenBank CAQ31569.1; theoretical mass 56543 Da; Cloned between the XhoI and NdeI sites of pET30a; also called MdoG; source: E. coli BL21(DE3), purified (HisTrap FF crude)
[3]
  stoichiometry N: 2

B4: EcOpgG D361N mutant, without signal sequence, C-terminal His6-tag (enzyme, Escherichia coli, UniProt P33136 23-511, looked up)
chain: FSIDDVAKQAQSLAGKGYETPKSNLPSVFRDMKYADYQQIQFNHDKAYWNNLKTPFKLEFYHQGMYFDTPVKINEVTATAVKRIKYSPDYFTFGDVQHDKDTVKDLGFAGFKVLYPINSKDKNDEIVSMLGASYFRVIGAGQVYGLSARGLAIDTALPSGEEFPRFKEFWIERPKPTDKRLTIYALLDSPRATGAYKFVVMPGRDTVVDVQSKIYLRDKVGKLGVAPLTSMFLFGPNQPSPANNYRPELHDSNGLSIHAGNGEWIWRPLNNPKHLAVSSFSMENPQGFGLLQRGRDFSRFEDLDDRYDLRPSAWVTPKGEWGKGSVELVEIPTNDETNNNIVAYWTPDQLPEPGKEMNFKYTITFSRDEDKLHAPDNAWVQQTRRSTGDVKQSNLIRQPDGTIAFVVDFTGAEMKKLPEDTPVTAQTSIGDNGEIVESTVRYNPVTKGWRLVMRVKVKDAKKTTEMRAALVNADQTLSETWSYQLPANE
notes: made from the EcOpgG plasmid of m2; One monomer in the asymmetric unit; the second chain of the dimer is a symmetry mate; source: E. coli BL21(DE3), purified (HisTrap FF crude)
[5]
  binding result: binds
